Results on one molecule are retold here after publication PMC12056068 (Nature Communications, 2025).

One assay concerns the target T1, GST-SUVH3 (Arabidopsis thaliana, UniProt Q9C5P4 1-669).
T1 sequence (looked up): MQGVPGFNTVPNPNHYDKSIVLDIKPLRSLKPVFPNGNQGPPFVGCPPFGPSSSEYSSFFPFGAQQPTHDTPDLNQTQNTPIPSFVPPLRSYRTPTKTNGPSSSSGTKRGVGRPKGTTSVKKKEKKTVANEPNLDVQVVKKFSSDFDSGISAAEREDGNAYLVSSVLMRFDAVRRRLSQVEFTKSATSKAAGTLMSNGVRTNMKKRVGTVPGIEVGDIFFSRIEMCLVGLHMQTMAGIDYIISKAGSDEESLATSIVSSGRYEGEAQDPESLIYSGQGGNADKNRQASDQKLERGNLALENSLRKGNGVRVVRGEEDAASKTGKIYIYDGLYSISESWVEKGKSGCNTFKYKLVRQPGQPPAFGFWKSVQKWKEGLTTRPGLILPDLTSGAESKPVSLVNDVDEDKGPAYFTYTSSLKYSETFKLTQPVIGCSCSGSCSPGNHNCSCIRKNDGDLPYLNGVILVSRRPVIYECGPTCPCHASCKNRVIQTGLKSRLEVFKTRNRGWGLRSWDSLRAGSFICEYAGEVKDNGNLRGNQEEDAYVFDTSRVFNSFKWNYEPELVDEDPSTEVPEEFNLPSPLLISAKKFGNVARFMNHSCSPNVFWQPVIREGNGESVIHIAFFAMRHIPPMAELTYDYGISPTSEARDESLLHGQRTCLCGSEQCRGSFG
In words: pull-down.

A further assay concerns the target T2, SUVH1 (Arabidopsis thaliana, UniProt Q9FF80 1-670).
T2 sequence (looked up): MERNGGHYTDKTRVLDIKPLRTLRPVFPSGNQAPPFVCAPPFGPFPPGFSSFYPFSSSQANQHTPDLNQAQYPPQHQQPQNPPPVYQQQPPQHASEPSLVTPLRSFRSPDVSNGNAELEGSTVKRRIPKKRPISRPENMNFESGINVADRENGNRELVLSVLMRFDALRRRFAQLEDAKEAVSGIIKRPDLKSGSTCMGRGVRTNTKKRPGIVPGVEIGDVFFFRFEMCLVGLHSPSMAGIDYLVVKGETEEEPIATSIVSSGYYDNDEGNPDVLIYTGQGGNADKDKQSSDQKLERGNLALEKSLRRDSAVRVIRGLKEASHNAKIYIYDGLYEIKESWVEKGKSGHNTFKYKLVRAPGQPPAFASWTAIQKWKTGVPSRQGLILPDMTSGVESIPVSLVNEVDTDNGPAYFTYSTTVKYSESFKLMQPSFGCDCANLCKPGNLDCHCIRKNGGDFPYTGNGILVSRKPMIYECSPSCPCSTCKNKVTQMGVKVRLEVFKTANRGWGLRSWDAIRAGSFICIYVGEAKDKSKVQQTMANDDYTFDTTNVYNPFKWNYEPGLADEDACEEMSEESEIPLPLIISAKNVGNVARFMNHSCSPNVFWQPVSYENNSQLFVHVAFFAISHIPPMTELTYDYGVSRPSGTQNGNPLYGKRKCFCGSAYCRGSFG
Description: pull-down.

B1: His-LEC2 (natural protein, Arabidopsis thaliana, UniProt Q1PFR7 1-363, looked up)
chain: MDNFLPFPSSNANSVQELSMDPNNNRSHFTTVPTYDHHQAQPHHFLPPFSYPVEQMAAVMNPQPVYLSECYPQIPVTQTGSEFGSLVGNPCLWQERGGFLDPRMTKMARINRKNAMMRSRNNSSPNSSPSELVDSKRQLMMLNLKNNVQISDKKDSYQQSTFDNKKLRVLCEKELKNSDVGSLGRIVLPKRDAEANLPKLSDKEGIVVQMRDVFSMQSWSFKYKFWSNNKSRMYVLENTGEFVKQNGAEIGDFLTIYEDESKNLYFAMNGNSGKQNEGRENESRERNHYEEAMLDYIPRDEEEASIAMLIGNLNDHYPIPNDLMDLTTDLQHHQATSSSMPPEDHAYVGSSDDQVSFNDFEWW
In the case of B1, the binding result with GST-SUVH3 and with SUVH1 was “binds” in each case.
